Data reported in patent US20250277048A1 (Regeneron, published 2025).

Legend:
[1] = target: T1, human CD40 (hCD40) expressed on cells (human, UniProt P25942 21-277); experiment: cell-based or functional assay
[2] = target: T2, human CD40 extracellular domain expressed with a C-terminal myc-myc-hexahistidine tag (human); experiment: ELISA blocking of 40 nM hCD40-mmH binding to 9His-hCD40L
T2 construct: also called hCD40-MMH; hCD40-mmH
Description: An ELISA-based blocking assay was developed to determine the ability of C40×CD40 bispecific antibodies to block the binding of the hCD40 monomer to plate-coated hCD40L. The recombinant human CD40-mmH protein (hCD40-MMH; REGN3094; SEQ ID NO: 53) used in the experiments comprises a portion of the human CD40 extracellular domain (amino acids P20-R193) fused to 2×Myc peptide and 6×histadine (SEQ ID NO: 1110) at the C-terminus of human CD40, and the human CD40L (accession #NM_000074.2) with amino acids E108-L261 of the extracellular domain with 9×His-2×(SGGG)-IGER at the N-terminus (9His-hCD40L) was commercially obtained from Biolegend.
In the blocking assay, 9His-hCD40L was passively absorbed at a concentration of 5 μg/mL in PBS on a 96-well microtiter plate overnight at 4° C. […] In a separate 96-well microtiter plate, a fixed amount of 40 nM hCD40-mmH was pre-mixed with one of the following antibodies, at concentrations ranging from 977 pM to 1 μM in PBS+0.5% BSA: (1) CD40×CD40 bispecific antibodies (REGN16431, REGN16432, REGN16634, and REGN16335); (2) parental CD40 mAbs (bivalent antibodies comprising 2 fragment antigen-binding [Fab] arms identical to one of anti-CD40 Fab of CD40×CD40 antibodies); (3) CD40×Irrelevant antibodies (bivalent antibodies that incorporate one Fab arm identical to one of anti-CD40 Fab of CD40×CD40 antibodies and another Fab arm specific to an irrelevant antigen); and (4) human IgG4 with Fc mutation isotype control antibodies (REGN7540 and REGN4513). The fixed concentration of hCD40-mmH was selected to be near the concentration (EC₅₀ value) that generated 50% of the maximal binding to the plate-adhered 9His-hCD40L. After one-hour incubation, the antibody-antigen complexes were transferred to the microtiter plate coated with 9His-hCD40L. After one hour incubation at room temperature, the plates were washed, and plate-bound hCD40-mmH protein was detected with horseradish peroxidase (HRP) conjugated goat anti-c-Myc antibody. The plates were then developed using TMB substrate solution (BD Biosciences) according to the manufacturer's recommended procedure and the absorbance at 450 nm (OD₄₅₀) was measured on a SpectraMax i3×plate reader.

[3] = target: T1, human CD40 (hCD40) expressed on cells; experiment: cell-based or functional assay; remark: listed apart in the source
[4] = target: T1, human CD40 (hCD40) expressed on cells; experiment: cell-based or functional assay; remark: listed apart in the source
[5] = target: T1, human CD40 (hCD40) expressed on cells; experiment: flow cytometry, Ramos 2G6.4C10 cells
Method: (§1) Cells were washed with 2% FBS (w/v) in 1×PBS (flow cytometry staining buffer) by centrifugation with benchtop Centrifuge 5810R (Eppendorf®, Hamburg, Germany). Cells were incubated for 30 minutes at 4° C. with serial dilutions of following antibodies ranging from 1.7 pM to 100 nM in flow cytometry staining buffer (1) anti-CD40×CD40 bispecific antibodies, or (2) parental anti-CD40 antibodies (bivalent antibodies comprising 2 fragment antigen-binding [Fab] arms identical to one of the two anti-CD40 Fab of bispecific anti-CD40×CD40 antibodies), or (3) anti-CD40×Irrelevant antibodies (bivalent antibodies that incorporate one Fab arm identical to one of anti-CD40 Fab of anti-CD40×CD40 antibodies and another Fab arm specific to an irrelevant antigen, i.e. birch pollen main allergen Bet v1), or (4) human IgG4 isotype control antibodies with Fc mutation. After washing, cell bound antibodies were detected with 2.5 μg/ml Allophycocyanin (APC)-conjugated goat anti-human IgG antibody specific for the Fcγ fragment (Jackson Immunoresearch, West Grove, PA) for 30 minutes at 4° C. Cells were washed and subsequently fixed with 50% solution of Cytofix™ Fixation Buffer (BD, Franklin Lakes, NJ) in flow cytometry staining buffer for 20 minutes at room temperature. Cells were washed and resuspended in flow cytometry staining buffer and stored at 4° C. for downstream flow cytometry analysis.
(§2) Acquisition of fluorescence signals were recorded on the ZE5 Cell Analyzer (Bio-Rad, Hercules, CA) according to the manufacturer's recommended procedure and flow cytometry data analysis was performed using the open-source R packages flowCore, flowStats, flowDensity, ggCyto, and flowAI. Multiplexed samples were deconvoluted and individual cell populations were identified based on their unique CellTrace™ fluorescence signature. APC Median Fluorescence intensity (MFI) was recorded to indicate the binding intensity of each antibody over a range of concentrations. Antibodies with MFI greater than 1500 at the highest tested concentration (100 nM) were classified as specific binders. In addition, direct binding signals (APC MFI) were analyzed as a function of the antibody concentration and data were fitted with a sigmoidal (four-parameter logistic) dose-response model using GraphPad Prism™ software.

[6] = target: T1, human CD40 (hCD40) expressed on cells; experiment: cell-based or functional assay; remark: listed apart in the source
[7] = target: T1, human CD40 (hCD40) expressed on cells; experiment: cell-based or functional assay; remark: listed apart in the source
[8] = target: T1, human CD40 (hCD40) expressed on cells; experiment: cell-based or functional assay; remark: listed apart in the source
[9] = target: T1, human CD40 (hCD40) expressed on cells; experiment: cell-based or functional assay; remark: listed apart in the source
[10] = target: T3, Macaca fascicularis CD40 (mfCD40) expressed on HEK293/D9/mfCD40 cells (Macaca fascicularis, UniProt G7PG38 21-278); experiment: flow cytometry, HEK293/D9/mfCD40 cells
T3 construct: whole, on cells; also called monkey CD40
Method: as §1, §2

[11] = target: T1, human CD40 (hCD40) expressed on cells; experiment: cell-based or functional assay; remark: listed apart in the source
[12] = target: T1, human CD40 (hCD40) expressed on cells; experiment: cell-based or functional assay; remark: listed apart in the source
[13] = target: T1, human CD40 (hCD40) expressed on cells; experiment: flow cytometry, HEK293/D9/hCD40 cells
Method: as §1, §2

T1 sequence (P25942 21-277): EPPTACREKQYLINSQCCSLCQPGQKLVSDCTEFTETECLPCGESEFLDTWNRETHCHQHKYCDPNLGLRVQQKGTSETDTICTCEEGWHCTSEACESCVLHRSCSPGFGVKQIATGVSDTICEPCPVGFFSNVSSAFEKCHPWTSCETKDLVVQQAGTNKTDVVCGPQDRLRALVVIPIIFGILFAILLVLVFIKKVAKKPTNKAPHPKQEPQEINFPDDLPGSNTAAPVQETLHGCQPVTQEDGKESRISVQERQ
T2 sequence (chain, as listed by the source limits assumed): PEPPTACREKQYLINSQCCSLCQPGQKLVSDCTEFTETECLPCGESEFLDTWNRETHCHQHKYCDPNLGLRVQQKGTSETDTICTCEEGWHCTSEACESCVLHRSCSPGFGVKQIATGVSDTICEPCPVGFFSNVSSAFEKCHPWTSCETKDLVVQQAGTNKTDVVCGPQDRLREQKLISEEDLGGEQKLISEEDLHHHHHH

% max blockade relative to no mAb, TNFa, donor 1 [1] [%] | % max blockade relative to no mAb, TNFa, donor 2 [1] [%] | % max blockade relative to no mAb, TNFa, donor 3 [1] [%] | % Blocking at 1 uM mAb [2] [%] | IC50 [2] [nM] | % max blockade relative to no mAb, IL-6, donor 1 [3] [%] | % max blockade relative to no mAb, IL-6, donor 2 [3] [%] | % max blockade relative to no mAb, IL-6, donor 3 [3] [%] | % max blockade relative to no mAb, IL-6, assay #2 donor 1 [4] [%] | % max blockade relative to no mAb, IL-6, assay #2 donor 2 [4] [%] | EC50 [5] [nM] | MFI at 100 nM [5] [MFI] | % max blockade relative to no mAb, TNFa, assay #2 donor 1 [6] [%] | % max blockade relative to no mAb, TNFa, assay #2 donor 2 [6] [%] | % max blockade relative to no mAb, IL-10, assay #2 donor 1 [7] [%] | % max blockade relative to no mAb, IL-10, assay #2 donor 2 [7] [%] | IC50, 500 pM hCD40L, Ramos NFkB-luc [8] [M] | Max % activation, no ligand, Ramos NFkB-luc [8] [%] | Max % inhibition, 500 pM hCD40L, Ramos NFkB-luc [8] [%] | IC50, 900 pM hCD40L, Raji NFkB-luc [9] [M] | Binder | other results
44 | 63.5 | 68.5 | 98 | 32 | 84.5 | 92 | 92 | 88.9 | 89.2 | 2 | 3760 | 62.8 | 51.1 | 87.7 | 89.9 | 6.93e-11 | 6 | 91 | 5.76e-11 | REGN16334 (bispecific antibody, human IgG4 S228P, kappa, D1 arm from 21519P2, D2 arm from 21520P2, common light chain; also called CD40xCD40 (21519 x 21520)) heavy 1: QLQLQESGPGLVRPSETLSLTCSVSGASMNTNNYYWGWIRQPPGKGLEWIGSGYYNGNTYYNPSLKSRVTISVDTSKNQFSLKLNSVTAADTAVYYCARQTPPRIIGSPNIWGQGTMVTVSSASTKGPSVFPLAPCSRSTSESTAALGCLVKDYFPEPVTVSWNSGALTSGVHTFPAVLQSSGLYSLSSVVTVPSSSLGTKTYTCNVDHKPSNTKVDKRVESKYGPPCPPCPAPGGGGPSVFLFPPKPKDTLMISRTPEVTCVVVDVSQEDPEVQFNWYVDGVEVHNAKTKPREEQFNSTYRVVSVLTVLHQDWLNGKEYKCKVSNKGLPSSIEKTISKAKGQPREPQVYTLPPSQEEMTKNQVSLTCLVKGFYPSDIAVEWESNGQPENNYKTTPPVLDSDGSFFLYSRLTVDKSRWQEGNVFSCSVMHEALHNHYTQKSLSLSLGK heavy 2: EVQLVESGGGLVQPGGSLRLSCAASGFTFGSYGMAWVRQAPGKGLEWVSAISGSGDYTNYADSVKRRFTISRDNSKNTLYLQMSSLRAEDTAVYYCAKEKTGTTGYLYSGMDVWGQGTTVTVSSASTKGPSVFPLAPCSRSTSESTAALGCLVKDYFPEPVTVSWNSGALTSGVHTFPAVLQSSGLYSLSSVVTVPSSSLGTKTYTCNVDHKPSNTKVDKRVESKYGPPCPPCPAPGGGGPSVFLFPPKPKDTLMISRTPEVTCVVVDVSQEDPEVQFNWYVDGVEVHNAKTKPREEQFNSTYRVVSVLTVLHQDWLNGKEYKCKVSNKGLPSSIEKTISKAKGQPREPQVYTLPPSQEEMTKNQVSLTCLVKGFYPSDIAVEWESNGQPENNYKTTPPVLDSDGSFFLYSRLTVDKSRWQEGNVFSCSVMHEALHNRFTQKSLSLSPGK light: not shown | Max % activation, no ligand, Raji NFkB-luc [9]: 13%; Max % inhibition, 900 pM hCD40L, Raji NFkB-luc [9]: 113%; EC50 [10]: 9.1 nM; MFI at 100 nM [10]: 41700 MFI; % max blockade relative to no mAb, IL-10, donor 1 [11]: 74.2%; % max blockade relative to no mAb, IL-10, donor 2 [11]: 91.4%; % max blockade relative to no mAb, IL-10, donor 3 [11]: 92.4%; IC50, 10 nM hCD40L, THP-1 NFkB-luc [12]: 0.553 nM; Max % activation, no ligand, THP-1 NFkB-luc [12]: 1%; Max % inhibition, 10 nM hCD40L, THP-1 NFkB-luc [12]: 98%; EC50 [13]: 2 nM; MFI at 100 nM [13]: 29000 MFI
45 | 64.7 | 61.6 | 96 | 32 | 83.2 | 91.4 | 91.4 | 88.4 | 87 | 1 | 3750 | 62.4 | 52.5 | 88.5 | 87.8 | 3.86e-11 | 5 | 93 | 4.94e-11 | REGN16335 (bispecific antibody, human IgG4 S228P, kappa, D1 arm from 30027P2, D2 arm from 21520P2, common light chain; also called CD40xCD40 (30027 x 21520)) heavy 1: EVQLVESGGGLVQPGGSLRLSCAASGFTFSSYAMNWVRQAPGKGLEWVSIISGTIGKTYYADSVKGRFTISRDNSKNTLYLQMNSLRGEDTAVYYCAKDTERDITGSPFDYWGQGTLVTVSSASTKGPSVFPLAPCSRSTSESTAALGCLVKDYFPEPVTVSWNSGALTSGVHTFPAVLQSSGLYSLSSVVTVPSSSLGTKTYTCNVDHKPSNTKVDKRVESKYGPPCPPCPAPGGGGPSVFLFPPKPKDTLMISRTPEVTCVVVDVSQEDPEVQFNWYVDGVEVHNAKTKPREEQFNSTYRVVSVLTVLHQDWLNGKEYKCKVSNKGLPSSIEKTISKAKGQPREPQVYTLPPSQEEMTKNQVSLTCLVKGFYPSDIAVEWESNGQPENNYKTTPPVLDSDGSFFLYSRLTVDKSRWQEGNVFSCSVMHEALHNHYTQKSLSLSLGK heavy 2: EVQLVESGGGLVQPGGSLRLSCAASGFTFGSYGMAWVRQAPGKGLEWVSAISGSGDYTNYADSVKRRFTISRDNSKNTLYLQMSSLRAEDTAVYYCAKEKTGTTGYLYSGMDVWGQGTTVTVSSASTKGPSVFPLAPCSRSTSESTAALGCLVKDYFPEPVTVSWNSGALTSGVHTFPAVLQSSGLYSLSSVVTVPSSSLGTKTYTCNVDHKPSNTKVDKRVESKYGPPCPPCPAPGGGGPSVFLFPPKPKDTLMISRTPEVTCVVVDVSQEDPEVQFNWYVDGVEVHNAKTKPREEQFNSTYRVVSVLTVLHQDWLNGKEYKCKVSNKGLPSSIEKTISKAKGQPREPQVYTLPPSQEEMTKNQVSLTCLVKGFYPSDIAVEWESNGQPENNYKTTPPVLDSDGSFFLYSRLTVDKSRWQEGNVFSCSVMHEALHNRFTQKSLSLSPGK light: not shown | Max % activation, no ligand, Raji NFkB-luc [9]: 9%; Max % inhibition, 900 pM hCD40L, Raji NFkB-luc [9]: 102%; EC50 [10]: 2.4 nM; MFI at 100 nM [10]: 47300 MFI; % max blockade relative to no mAb, IL-10, donor 1 [11]: 78.5%; % max blockade relative to no mAb, IL-10, donor 2 [11]: 93.6%; % max blockade relative to no mAb, IL-10, donor 3 [11]: 89.8%; IC50, 10 nM hCD40L, THP-1 NFkB-luc [12]: 0.221 nM; Max % activation, no ligand, THP-1 NFkB-luc [12]: 3%; Max % inhibition, 10 nM hCD40L, THP-1 NFkB-luc [12]: 98%; EC50 [13]: 1.6 nM; MFI at 100 nM [13]: 28900 MFI
